B1: CPEB3 Ribozyme (parent)
chain: GGGGGCCACAGCAGAAGCGUUCACGUCGCGGCCCCUGUCAGAUUCUGGUGAAUCUGCGAAUUCUGCUGU

Variants of: B1
Assay: self-cleavage, relative activity (ratio to wild type); higher = more cleavage; co-transcriptional

| Variant | self-cleavage |
| --- | --- |
| G17U C34U | 0.514 |
| G17U C35A | 0.214 |
| G17U C35G | 0.227 |
| G17U C35U | 0.338 |
| G17U C39A | 0.167 |
| G17U C39G | 0.289 |
| G17U C45G | 0.395 |
| G17U C45U | 0.528 |
| G17U C54G | 0.166 |
| G17U C57U | 0.228 |
| G17U C63A | 0.182 |
| G17U C63G | 0.229 |
| G17U C63U | 0.322 |
| G17U C66G | 0.24 |
| G17U G19A | 0.209 |
| G17U G19U | 0.123 |
| G17U G25A | 0.143 |
| G17U G25C | 0.107 |
| G17U G28A | 0.108 |
| G17U G28C | 0.11 |
| G17U G30C | 0.119 |
| G17U G30U | 0.168 |
| G17U G31A | 0.191 |
| G17U G31C | 0.129 |

| Variant | self-cleavage |
| --- | --- |
| G17U G31U | 0.169 |
| G17U G37A | 0.175 |
| G17U G37C | 0.159 |
| G17U G37U | 0.169 |
| G17U G41A | 0.152 |
| G17U G41C | 0.14 |
| G17U G41U | 0.194 |
| G17U G47A | 0.683 |
| G17U G47C | 0.69 |
| G17U G48C | 0.635 |
| G17U G48U | 0.694 |
| G17U G50A | 0.571 |
| G17U G50C | 0.386 |
| G17U G50U | 0.552 |
| G17U G56A | 0.32 |
| G17U G56C | 0.219 |
| G17U G56U | 0.2 |
| G17U G58C | 0.527 |
| G17U G58U | 0.65 |
| G17U G65A | 0.254 |
| G17U G65U | 0.292 |
| G17U G68A | 0.875 |
| G17U U20A | 0.151 |
| G17U U20C | 0.107 |

| Variant | self-cleavage |
| --- | --- |
| G17U U20G | 0.192 |
| G17U U21A | 0.367 |
| G17U U21G | 0.0999 |
| G17U U26A | 0.312 |
| G17U U26C | 0.286 |
| G17U U26G | 0.297 |
| G17U U36A | 0.0699 |
| G17U U36G | 0.191 |
| G17U U38A | 0.255 |
| G17U U38G | 0.149 |
| G17U U43C | 0.446 |
| G17U U44A | 0.395 |
| G17U U44C | 0.368 |
| G17U U46C | 0.537 |
| G17U U49A | 0.662 |
| G17U U49C | 0.554 |
| G17U U49G | 0.455 |
| G17U U53A | 0.265 |
| G17U U53G | 0.336 |
| G17U U55A | 0.177 |
| G17U U55G | 0.238 |
| G17U U61A | 0.333 |
| G17U U62A | 0.281 |
| G17U U62C | 0.23 |

| Variant | self-cleavage |
| --- | --- |
| G17U U62G | 0.316 |
| G17U U64C | 0.251 |
| G17U U67C | 0.537 |
| G17U U69C | 0.874 |
| C18A | 0.2 |
| C18A A23G | 0.171 |
| C18A A40G | 0.176 |
| C18A A40U | 0.0764 |
| C18A A42C | 0.166 |
| C18A A42U | 0.0858 |
| C18A A51G | 0.233 |
| C18A A51U | 0.181 |
| C18A A52G | 0.201 |
| C18A A52U | 0.258 |
| C18A A59C | 0.0942 |
| C18A A60U | 0.131 |
| C18A C22A | 0.144 |
| C18A C22G | 0.159 |
| C18A C22U | 0.0813 |
| C18A C24A | 0.142 |
| C18A C24U | 0.0604 |
| C18A C27A | 0.163 |
| C18A C29G | 0.15 |
| C18A C32A | 0.192 |

| Variant | self-cleavage |
| --- | --- |
| C18A C32G | 0.181 |
| C18A C32U | 0.22 |
| C18A C33G | 0.123 |
| C18A C33U | 0.251 |
| C18A C34A | 0.145 |
| C18A C35G | 0.104 |
| C18A C35U | 0.222 |
| C18A C39A | 0.156 |
| C18A C39G | 0.142 |
| C18A C39U | 0.136 |
| C18A C45A | 0.0998 |
| C18A C45G | 0.179 |
| C18A C45U | 0.21 |
| C18A C54G | 0.179 |
| C18A C54U | 0.173 |
| C18A C57A | 0.117 |
| C18A C63G | 0.147 |
| C18A C63U | 0.151 |
| C18A G19C | 0.0974 |
| C18A G19U | 0.12 |
| C18A G25C | 0.178 |
| C18A G25U | 0.0886 |
| C18A G28A | 0.12 |
| C18A G28C | 0.426 |

| Variant | self-cleavage |
| --- | --- |
| C18A G28U | 0.889 |
| C18A G30A | 0.117 |
| C18A G30C | 0.133 |
| C18A G30U | 0.132 |
| C18A G31A | 0.187 |
| C18A G31C | 0.124 |
| C18A G31U | 0.129 |
| C18A G37A | 0.14 |
| C18A G37U | 0.121 |
| C18A G41C | 0.119 |
| C18A G41U | 0.211 |
| C18A G47A | 0.232 |
| C18A G47C | 0.181 |
| C18A G47U | 0.203 |
| C18A G48U | 0.186 |
| C18A G50A | 0.191 |
| C18A G50C | 0.208 |
| C18A G50U | 0.284 |
| C18A G56C | 0.186 |
| C18A G58A | 0.155 |
| C18A G58U | 0.184 |
| C18A G65A | 0.148 |
| C18A G65U | 0.102 |
| C18A G68A | 0.357 |

| Variant | self-cleavage |
| --- | --- |
| C18A G68C | 0.28 |
| C18A U20C | 0.158 |
| C18A U21A | 0.107 |
| C18A U21C | 0.181 |
| C18A U21G | 0.109 |
| C18A U26A | 0.128 |
| C18A U36A | 0.182 |
| C18A U36C | 0.142 |
| C18A U38A | 0.0704 |
| C18A U38C | 0.0484 |
| C18A U43A | 0.117 |
| C18A U43G | 0.117 |
| C18A U44A | 0.185 |
| C18A U44G | 0.123 |
| C18A U46A | 0.217 |
| C18A U46G | 0.219 |
| C18A U49G | 0.259 |
| C18A U53C | 0.169 |
| C18A U55A | 0.142 |
| C18A U55G | 0.113 |
| C18A U61A | 0.138 |
| C18A U61G | 0.166 |
| C18A U64G | 0.178 |

From the RNAGym collection of RNA variant scans (doi:10.7554/elife.80360)
